Patent US20150344570A1 (published 2015)

B1: GpH7-A5/GpH7-B3 variant A327_13S/GpL16-k0 (antibody, human IgG1, kappa)
heavy 1: not shown
heavy 2: not shown
light: DIVMTQSPLSLPVTPGEPASISCQASESLVHSNRNTYLHWYLQKPGQSPQLLIYKVSNRFSGVPDRFSGSGSGTDFTLKISRVEAEDVGVYYCSQNTHVPPTFGQGTKVEIERTVAAPSVFIFPPSDEQLKSGTASVVCLLNNFYPREAKVQWKVDNALQSGNSQESVTEQDSKDSTYSLSSTLTLSKADYEKHKVYACEVTHQGLSSPVTKSFNRGEC
notes: also called He Ab A327_13S
B2: GpH7-A5/GpH7-B3 variant A330_05P/GpL16-k0 (antibody, human IgG1, kappa)
heavy 1: not shown
heavy 2: not shown
light: DIVMTQSPLSLPVTPGEPASISCQASESLVHSNRNTYLHWYLQKPGQSPQLLIYKVSNRFSGVPDRFSGSGSGTDFTLKISRVEAEDVGVYYCSQNTHVPPTFGQGTKVEIERTVAAPSVFIFPPSDEQLKSGTASVVCLLNNFYPREAKVQWKVDNALQSGNSQESVTEQDSKDSTYSLSSTLTLSKADYEKHKVYACEVTHQGLSSPVTKSFNRGEC
notes: also called He Ab A330_05P
B3: GpH7-A5/GpH7-B3 variant A330_08L/GpL16-k0 (antibody, human IgG1, kappa)
heavy 1: not shown
heavy 2: not shown
light: DIVMTQSPLSLPVTPGEPASISCQASESLVHSNRNTYLHWYLQKPGQSPQLLIYKVSNRFSGVPDRFSGSGSGTDFTLKISRVEAEDVGVYYCSQNTHVPPTFGQGTKVEIERTVAAPSVFIFPPSDEQLKSGTASVVCLLNNFYPREAKVQWKVDNALQSGNSQESVTEQDSKDSTYSLSSTLTLSKADYEKHKVYACEVTHQGLSSPVTKSFNRGEC
notes: also called He Ab A330_08L
B4: GpH7-A5/GpH7-B3 variant A330_09D/GpL16-k0 (antibody, human IgG1, kappa)
heavy 1: not shown
heavy 2: not shown
light: DIVMTQSPLSLPVTPGEPASISCQASESLVHSNRNTYLHWYLQKPGQSPQLLIYKVSNRFSGVPDRFSGSGSGTDFTLKISRVEAEDVGVYYCSQNTHVPPTFGQGTKVEIERTVAAPSVFIFPPSDEQLKSGTASVVCLLNNFYPREAKVQWKVDNALQSGNSQESVTEQDSKDSTYSLSSTLTLSKADYEKHKVYACEVTHQGLSSPVTKSFNRGEC
notes: also called He Ab A330_09D
B5: GpH7-A5/GpH7-B3 variant A330_11K/GpL16-k0 (antibody, human IgG1, kappa)
heavy 1: not shown
heavy 2: not shown
light: DIVMTQSPLSLPVTPGEPASISCQASESLVHSNRNTYLHWYLQKPGQSPQLLIYKVSNRFSGVPDRFSGSGSGTDFTLKISRVEAEDVGVYYCSQNTHVPPTFGQGTKVEIERTVAAPSVFIFPPSDEQLKSGTASVVCLLNNFYPREAKVQWKVDNALQSGNSQESVTEQDSKDSTYSLSSTLTLSKADYEKHKVYACEVTHQGLSSPVTKSFNRGEC
notes: also called He Ab A330_11K
B6: GpH7-A5/GpH7-B3 variant A330_14T/GpL16-k0 (antibody, human IgG1, kappa)
heavy 1: not shown
heavy 2: not shown
light: DIVMTQSPLSLPVTPGEPASISCQASESLVHSNRNTYLHWYLQKPGQSPQLLIYKVSNRFSGVPDRFSGSGSGTDFTLKISRVEAEDVGVYYCSQNTHVPPTFGQGTKVEIERTVAAPSVFIFPPSDEQLKSGTASVVCLLNNFYPREAKVQWKVDNALQSGNSQESVTEQDSKDSTYSLSSTLTLSKADYEKHKVYACEVTHQGLSSPVTKSFNRGEC
notes: also called He Ab A330_14T
B7: GpH7-A5/GpH7-B3 variant A330_16H/GpL16-k0 (antibody, human IgG1, kappa)
heavy 1: not shown
heavy 2: not shown
light: DIVMTQSPLSLPVTPGEPASISCQASESLVHSNRNTYLHWYLQKPGQSPQLLIYKVSNRFSGVPDRFSGSGSGTDFTLKISRVEAEDVGVYYCSQNTHVPPTFGQGTKVEIERTVAAPSVFIFPPSDEQLKSGTASVVCLLNNFYPREAKVQWKVDNALQSGNSQESVTEQDSKDSTYSLSSTLTLSKADYEKHKVYACEVTHQGLSSPVTKSFNRGEC
notes: also called He Ab A330_16H
B8: GpH7-A5/GpH7-B3 variant E269_02A/GpL16-k0 (antibody, human IgG1, kappa)
heavy 1: not shown
heavy 2: not shown
light: DIVMTQSPLSLPVTPGEPASISCQASESLVHSNRNTYLHWYLQKPGQSPQLLIYKVSNRFSGVPDRFSGSGSGTDFTLKISRVEAEDVGVYYCSQNTHVPPTFGQGTKVEIERTVAAPSVFIFPPSDEQLKSGTASVVCLLNNFYPREAKVQWKVDNALQSGNSQESVTEQDSKDSTYSLSSTLTLSKADYEKHKVYACEVTHQGLSSPVTKSFNRGEC
notes: also called He Ab E269_02A
B9: GpH7-A5/GpH7-B3 variant E269_03V/GpL16-k0 (antibody, human IgG1, kappa)
heavy 1: not shown
heavy 2: not shown
light: DIVMTQSPLSLPVTPGEPASISCQASESLVHSNRNTYLHWYLQKPGQSPQLLIYKVSNRFSGVPDRFSGSGSGTDFTLKISRVEAEDVGVYYCSQNTHVPPTFGQGTKVEIERTVAAPSVFIFPPSDEQLKSGTASVVCLLNNFYPREAKVQWKVDNALQSGNSQESVTEQDSKDSTYSLSSTLTLSKADYEKHKVYACEVTHQGLSSPVTKSFNRGEC
notes: also called He Ab E269_03V

target: T1, FcγRIa (human, UniProt P12314 16-292); assay: SPR (Biacore); He Ab relative to HeCon Ab = 100
T1 construct: extracellular domain; also called FcgRI; 1a
Method: Analysis of interaction between objective antibody and the FcγR was carried out using Biacore T100 (GE Healthcare). HBS-EP+ (GE Healthcare) was used as the running buffer, and the measurement temperature was set to 25° C. Chips produced by immobilizing the antigen peptide by the amine coupling method to a Series S Sencor Chip CM5 (GE Healthcare), or alternatively, chips produced by allowing preliminarily biotinylated antigen peptides to interact with and immobilize onto a Series S Sensor Chip SA (certified) (GE Healthcare) were used. Antibodies of interest were captured onto an antigen peptide-immobilized chip, and allowed to interact to each FcγR diluted with running buffer. To regenerate and repeatedly use the chip, the antibodies captured on the chip were washed off by reacting 10 mM glycine-HCl, pH 1.5.

T1 sequence (P12314 16-292): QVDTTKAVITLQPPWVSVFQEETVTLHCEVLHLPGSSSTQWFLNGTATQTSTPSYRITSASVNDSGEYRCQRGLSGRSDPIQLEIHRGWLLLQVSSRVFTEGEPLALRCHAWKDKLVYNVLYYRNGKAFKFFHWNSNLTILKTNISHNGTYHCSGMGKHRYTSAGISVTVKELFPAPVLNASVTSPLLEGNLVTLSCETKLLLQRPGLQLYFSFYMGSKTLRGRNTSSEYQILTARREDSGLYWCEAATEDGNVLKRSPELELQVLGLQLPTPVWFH

Row | Binder | He/Con_1a
1 | B1 | 102 % of control
2 | B2 | 101 % of control
3 | B3 | 107 % of control
4 | B4 | 109 % of control
5 | B5 | 103 % of control
6 | B6 | 105 % of control
7 | B7 | 106 % of control
8 | B8 | 104 % of control
9 | B9 | 103 % of control
